Data reported in publication PMC5207774, “Atomic structures of fibrillar segments of hIAPP suggest tightly mated β-sheets are important for cytotoxicity” (eLife, 2017).

B1: hIAPP segment 19–29 S20G (19-SGNNFGAILSS-29) (peptide)
peptide: SGNNFGAILSS
notes: human islet amyloid polypeptide (hIAPP), residues 19-29, with the early onset familial mutation S20G; numbers count on: the mature protein (37-residue hormone); Forms 3D nanocrystals and fibrils; the number of chains in the assembly is open-ended; also called spine segment 19–29 S20G; source: synthetic peptide: GenScript, greater than 98% purity
B2: hIAPP segment 15–25 WT (15-FLVHSSNNFGA-25) (peptide)
peptide: FLVHSSNNFGA
notes: human islet amyloid polypeptide (hIAPP), residues 15-25, wild type; numbers count on: the mature protein (37-residue hormone); Forms 3D nanocrystals and fibrils (striated ribbons); also called spine segment 15–25 WT; source: synthetic peptide: GenScript, greater than 98% purity

Molecular target: the molecule itself
Assay: crystal structure; MicroED (electron diffraction in a cryo electron microscope, 200 kV) from 3D peptide crystals only a few hundred nanometers thick; self-association of the peptide in the crystal

| Protein | binding result |
| --- | --- |
| B1 | binds |
| B2 | binds |
